In patent US20260167699A1 (Chugai, published 2026):
Like-named read-outs stand apart in the source and are kept apart here.

T1: FcγRIIb extracellular domain with C-terminal His tag (human, UniProt P31994 43-217)
T1 construct: extracellular domain
T1 sequence: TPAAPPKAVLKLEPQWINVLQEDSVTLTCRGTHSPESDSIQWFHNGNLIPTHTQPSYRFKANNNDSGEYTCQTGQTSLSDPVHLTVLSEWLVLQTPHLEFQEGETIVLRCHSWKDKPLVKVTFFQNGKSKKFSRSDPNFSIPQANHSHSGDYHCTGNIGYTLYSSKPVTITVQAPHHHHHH

T2: FcγRIIa(R) extracellular domain with C-terminal His tag (human, UniProt P12318 34-217)
T2 construct: extracellular domain; polymorphic form R131; also called FcγRIIa R type
T2 sequence: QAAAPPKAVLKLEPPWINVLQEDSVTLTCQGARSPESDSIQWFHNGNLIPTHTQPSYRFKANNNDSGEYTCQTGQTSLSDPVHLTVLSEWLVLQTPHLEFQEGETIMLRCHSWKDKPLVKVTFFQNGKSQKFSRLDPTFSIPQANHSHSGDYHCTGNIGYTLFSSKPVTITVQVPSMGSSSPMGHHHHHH

T3: FcγRIIa(H) extracellular domain with C-terminal His tag (human, UniProt P12318 34-217)
T3 construct: extracellular domain; polymorphic form H131; also called FcγRIIa H type
T3 sequence: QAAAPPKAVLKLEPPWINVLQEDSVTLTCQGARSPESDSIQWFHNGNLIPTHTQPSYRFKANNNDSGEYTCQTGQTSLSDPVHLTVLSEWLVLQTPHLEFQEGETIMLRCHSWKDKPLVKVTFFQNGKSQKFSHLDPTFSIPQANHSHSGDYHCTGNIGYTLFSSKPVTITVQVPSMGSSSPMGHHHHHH

B1: GpH7-A57/GpH7-B78/GpL16-k0 (antibody, human IgG1, kappa)
heavy 1: QVQLVQSGAEVKKPGASVTVSCKASGYTFTDYEMHWIRQPPGEGLEWIGAIDPKTGDTAYSESFQDRVTLTADKSTSTAYMELSSLTSEDTAVYYCTRFYSYTYWGQGTLVTVSSASTKGPSVFPLAPSSKSTSGGTAALGCLVKDYFPEPVTVSWNSGALTSGVHTFPAVLQSSGLYSLSSVVTVPSSSLGTQTYICNVNHKPSNTKVDKKVEPKSCDKTHTCPPCPAPELLGGPDVFLFPPKPKDTLMISRTPEVTCVVVDVSHEDPEVKFNWYVDGVEVHNAKTKPREEQYNSTYRVVSVLTVLHQDWLNGKEYKCKVSNKALPLPEEKTISKAKGQPREPQVYTLPPSRKELTKNQVSLTCLVKGFYPSDIAVEWESNGQPENNYKTTPPVLDSDGSFFLYSKLTVDKSRWQQGNVFSCSVMHEALHNRYTQKSLSLSP
heavy 2: QVQLVQSGAEVKKPGASVTVSCKASGYTFTDYEMHWIRQPPGEGLEWIGAIDPKTGDTAYSESFQDRVTLTADKSTSTAYMELSSLTSEDTAVYYCTRFYSYTYWGQGTLVTVSSASTKGPSVFPLAPSSKSTSGGTAALGCLVKDYFPEPVTVSWNSGALTSGVHTFPAVLQSSGLYSLSSVVTVPSSSLGTQTYICNVNHKPSNTKVDKKVEPKSCDKTHTCPPCPAPELLGGPDVFLFPPKPKDTLMISRTPEVTCVVVDVSHEDPEVKFNWYVDGVEVHNAKTKPREEQYNSTYRVVSVLTVLHQDWLNGKEYKCKVSNKALPLPEEKTISKAKGQPREPQVYTLPPSRDELTKNQVSLTCLVKGFYPSDIAVEWESNGQPENNYKTTPPVLDSDGSFFLYSKLTVDKSRWQQGNVFSCSVMHEALHNHYTQESLSLSP
light: DIVMTQSPLSLPVTPGEPASISCQASESLVHSNRNTYLHWYLQKPGQSPQLLIYKVSNRFSGVPDRFSGSGSGTDFTLKISRVEAEDVGVYYCSQNTHVPPTFGQGTKVEIERTVAAPSVFIFPPSDEQLKSGTASVVCLLNNFYPREAKVQWKVDNALQSGNSQESVTEQDSKDSTYSLSSTLTLSKADYEKHKVYACEVTHQGLSSPVTKSFNRGEC
notes: Called homodimerized: S239D, A330L, I332E in both H chains
B2: H240-Kn032/H240-Hl032/L73-k0 (antibody, human IgG1, kappa)
heavy 1: QDQLVQSGAEVKKPGASVKVSCKASGFNIKDTYIQWVRQAPGQGLEWMGRIDPLRKQTKYREKFEGRVTITADTSTNTAYMELSSLRSEDTAVYYCVRSGREFDYWGQGTLVTVSSASTKGPSVFPLAPSSKSTSGGTAALGCLVKDYFPEPVTVSWNSGALTSGVHTFPAVLQSSGLYSLSSVVTVPSSSLGTQTYICNVNHKPSNTKVDKKVEPKSCDKTHTCPPCPAPELLGGPDVFLFPPKPKDTLMISRTPEVTCVVVDVSHEDPEVKFNWYVDGVEVHNAKTKPREEQYNSTYRVVSVLTVLHQDWLNGKEYKCKVSNKALPLPEEKTISKAKGQPREPQVCTLPPSRDELTKNQVSLWCLVKGFYPSDIAVEWESNGQPENNYKTTPPVLDSDGSFFLYSKLTVDKSRWQQGNVFSCSVMHEALHNHYTQKSLSLSP
heavy 2: QDQLVQSGAEVKKPGASVKVSCKASGFNIKDTYIQWVRQAPGQGLEWMGRIDPLRKQTKYREKFEGRVTITADTSTNTAYMELSSLRSEDTAVYYCVRSGREFDYWGQGTLVTVSSASTKGPSVFPLAPSSKSTSGGTAALGCLVKDYFPEPVTVSWNSGALTSGVHTFPAVLQSSGLYSLSSVVTVPSSSLGTQTYICNVNHKPSNTKVDKKVEPKSCDKTHTCPPCPAPELLGGPDVFLFPPKPKDTLMISRTPEVTCVVVDVSHEDPEVKFNWYVDGVEVHNAKTKPREEQYNSTYRVVSVLTVLHQDWLNGKEYKCKVSNKALPLPEEKTISKAKGQPREPQVYTLPPSRCELTKNQVSLSCAVKGFYPSDIAVEWESNGQPENNYKTTPPVLDSDGSFFLVSKLTVDKSRWQQGNVFSCSVMHEALHNHYTQKSLSLSP
light: DIQMTQSPSSLSASVGDRVTITCRASQDIHKYIAWYQQKPGQAPRLLIQYTSTLQPGVPSRFSGSGSGTDYTFTISSLQPEDIATYYCLQYEQLRTFGGGTKVEIKRTVAAPSVFIFPPSDEQLKSGTASVVCLLNNFYPREAKVQWKVDNALQSGNSQESVTEQDSKDSTYSLSSTLTLSKADYEKHKVYACEVTHQGLSSPVTKSFNRGEC
notes: anti-epiregulin IgG1 called homodimerized: S239D/A330L/I332E in both H chains, knobs-into-holes; also called H240-Kn032/H240-HI032/L73-k0
B3: H240-Kn061/H240-Hl071/L73-k0 (antibody, human IgG1, kappa)
heavy 1: QDQLVQSGAEVKKPGASVKVSCKASGFNIKDTYIQWVRQAPGQGLEWMGRIDPLRKQTKYREKFEGRVTITADTSTNTAYMELSSLRSEDTAVYYCVRSGREFDYWGQGTLVTVSSASTKGPSVFPLAPSSKSTSGGTAALGCLVKDYFPEPVTVSWNSGALTSGVHTFPAVLQSSGLYSLSSVVTVPSSSLGTQTYICNVNHKPSNTKVDKKVEPKSCDKTHTCPPCPAPEYYWGPSVFLFPPKPKDTLMISRTPEVTCVVVDVSDEDPEVKFNWYVDGVEVHNAKTKPREEQYNATYRVVSVLTVLHQDWLNGKEYKCKVSNKALPAPIEKTISKAKGQPREPQVCTLPPSRDELTKNQVSLWCLVKGFYPSDIAVEWESNGQPENNYKTTPPVLDSDGSFFLYSKLTVDKSRWQQGNVFSCSVMHEALHNHYTQKSLSLSP
heavy 2: QDQLVQSGAEVKKPGASVKVSCKASGFNIKDTYIQWVRQAPGQGLEWMGRIDPLRKQTKYREKFEGRVTITADTSTNTAYMELSSLRSEDTAVYYCVRSGREFDYWGQGTLVTVSSASTKGPSVFPLAPSSKSTSGGTAALGCLVKDYFPEPVTVSWNSGALTSGVHTFPAVLQSSGLYSLSSVVTVPSSSLGTQTYICNVNHKPSNTKVDKKVEPKSCDKTHTCPPCPAPELLGGPSVFLFPPKPKDTLMISRTPEVTCVVVDVSHEDPEVKFNWYVDGVEVHNAKTKPREEQYNSTYRVVSVLTVLHQDWLNGKEYKCKVSNDALPMPIEETISKAKGQPREPQVYTLPPSRCELTKNQVSLSCAVKGFYPSDIAVEWESNGQPENNYKTTPPVLDSDGSFFLVSKLTVDKSRWQQGNVFSCSVMHEALHNHYTQKSLSLSP
light: DIQMTQSPSSLSASVGDRVTITCRASQDIHKYIAWYQQKPGQAPRLLIQYTSTLQPGVPSRFSGSGSGTDYTFTISSLQPEDIATYYCLQYEQLRTFGGGTKVEIKRTVAAPSVFIFPPSDEQLKSGTASVVCLLNNFYPREAKVQWKVDNALQSGNSQESVTEQDSKDSTYSLSSTLTLSKADYEKHKVYACEVTHQGLSSPVTKSFNRGEC
notes: heterodimerized anti-epiregulin IgG1; L234Y/L235Y/G236W/H268D/S298A in Kn061, K326D/A330M/K334E in Hl071; also called H240-Kn061/H240-HI071/L73-k0

What was measured:
[1] = target: T4, FcγRIIIa extracellular domain with C-terminal His tag (allotype not given) (UniProt P08637 17-208, limits assumed); assay: SPR (Biacore), from the KD values of Table 5
T4 construct: extracellular domain; also called 3a

[2] = target: T1, FcγRIIb extracellular domain with …; assay: SPR (Biacore), captured antibody, FcγR analyte, 1:1 Langmuir fit
[3] = target: T2, FcγRIIa(R) extracellular domain with …; assay: as above
[4] = target: T5, FcγRIIIa(V) extracellular domain with C-terminal His tag (human, UniProt P08637 17-208); assay: as above
T5 construct: extracellular domain; polymorphic form V158; also called FcγRIIIa V type

[5] = target: T3, FcγRIIa(H) extracellular domain with …; assay: as above
[6] = target: T6, FcγRIIIa(F) extracellular domain with C-terminal His tag (human, UniProt P08637 17-208); assay: as above
T6 construct: extracellular domain; polymorphic form F158; also called FcγRIIIa F type

[7] = target: T7, FcγRIa extracellular domain with C-terminal His tag (human, UniProt P12314 16-292); assay: as above
T7 construct: extracellular domain

[8] = target: T1, FcγRIIb extracellular domain with …; assay: as above; remark: listed apart in the source
Method: (§1) The antibody of interest was analyzed for its interaction with FcγR using a BiaCore™ T100, BiaCore™ A100, or BiaCore™ 4000 surface plasmon resonance system (GE Healthcare Japan Corp.). The running buffer used was HBS-EP+ (GE Healthcare Japan Corp.). The assay temperature was set to 25° C. The sensor chips used were: a chip prepared by immobilizing antigenic peptides onto Series S Sensor Chip CM5 (GE Healthcare Japan Corp.) by the amine coupling method; a chip prepared by immobilizing antigenic peptides biotinylated in advance onto Series S Sensor Chip SA (certified) (GE Healthcare Japan Corp.) through their interaction; a chip prepared by immobilizing protein L (ACTIGEN, BioVision, Inc.) onto Series S Sensor Chip CM5 (GE Healthcare Japan Corp.); and a chip prepared by immobilizing protein A/G (Thermo Fisher Scientific K.K.) onto Series S Sensor Chip CM5 (GE Healthcare Japan Corp.). The antibody of interest was captured onto any of these chips and allowed to interact with FcγR diluted with a running buffer. The antibody captured on the chip was washed off through the reaction of 10 mM glycine-HCl (pH 1.5) to regenerate the chip, which was repetitively used.

[9] = target: T2, FcγRIIa(R) extracellular domain with …; assay: as above; remark: listed apart in the source
Method: as §1

[10] = target: T5, FcγRIIIa(V) extracellular domain with …; assay: as above; remark: listed apart in the source
Method: as §1

[11] = target: T3, FcγRIIa(H) extracellular domain with …; assay: as above; remark: listed apart in the source
Method: as §1

[12] = target: T6, FcγRIIIa(F) extracellular domain with …; assay: as above; remark: listed apart in the source
Method: as §1

[13] = target: T7, FcγRIa extracellular domain with …; assay: as above; remark: listed apart in the source
Method: as §1

T6 sequence (P08637 other isoform, or with tags, fused parts or gaps): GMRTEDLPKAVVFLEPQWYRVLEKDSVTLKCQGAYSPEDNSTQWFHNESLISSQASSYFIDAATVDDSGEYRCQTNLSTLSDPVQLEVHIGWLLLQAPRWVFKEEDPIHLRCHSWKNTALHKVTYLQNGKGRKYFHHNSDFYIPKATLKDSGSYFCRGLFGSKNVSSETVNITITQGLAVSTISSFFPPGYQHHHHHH
T7 sequence (P12314 other isoform, or with tags, fused parts or gaps): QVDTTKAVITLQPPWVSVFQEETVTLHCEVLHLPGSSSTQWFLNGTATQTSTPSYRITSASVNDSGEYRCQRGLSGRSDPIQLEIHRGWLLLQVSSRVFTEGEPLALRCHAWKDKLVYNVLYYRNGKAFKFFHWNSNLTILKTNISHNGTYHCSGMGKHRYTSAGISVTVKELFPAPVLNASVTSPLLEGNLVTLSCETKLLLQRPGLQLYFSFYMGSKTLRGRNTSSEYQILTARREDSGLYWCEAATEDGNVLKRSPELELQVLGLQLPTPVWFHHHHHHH
T5 sequence (P08637 other isoform, or with tags, fused parts or gaps): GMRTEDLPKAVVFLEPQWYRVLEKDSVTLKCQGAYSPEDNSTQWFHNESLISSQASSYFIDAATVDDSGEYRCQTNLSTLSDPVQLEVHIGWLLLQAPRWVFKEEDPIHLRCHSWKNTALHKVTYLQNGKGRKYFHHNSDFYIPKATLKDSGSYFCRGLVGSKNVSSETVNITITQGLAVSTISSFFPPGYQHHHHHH

Row | Binder | fold FcγRIIIa-binding activity against the corresponding heterodimerized antibody (GpH7-A5/GpH7-B78/GpL16-k0) [1] | Kd [2] | Kd [3] | Kd [4] | Kd [5] | Kd [6] | Kd [7] | Kd [8] | Kd [9] | Kd [10] | Kd [11] | Kd [12] | Kd [13]
1 | B1 | ~9 times |  |  |  |  |  |  |  |  |  |  |  | 
2 | B2 |  | 620 nM | 340 nM | 3.1 nM | 690 nM | 9.1 nM | 0.073 nM | 620 nM | 340 nM | 3.1 nM | 690 nM | 9.1 nM | 0.073 nM
3 | B3 |  | 1200 nM | 350 nM | 1.8 nM | 280 nM | 5.1 nM | 0.14 nM | 1200 nM | 350 nM | 1.8 nM | 280 nM | 5.1 nM | 0.14 nM
